Assay results: PMC5722895

Columns and labels:
[1] = target: RBD–SBD (1–148/247–432) (E. coli) (UniProt P0A850); assay: SEC-MALS; sample buffer (20 mM K-phosphate pH 6.5, 100 mM KCl, 0.5 mM EDTA); 6 °C for the individual domains; concentration series fitted to a fast monomer–dimer equilibrium; dimer to monomers
[2] = target: RBD–SBD (1–148/247–432) (E. coli) (UniProt P0A850); assay: SEC-MALS; as a2 but 500 mM KCl; dimer to monomers
[3] = target: RBD–SBD (1–148/247–432) (E. coli) (UniProt P0A850); assay: AUC; sedimentation equilibrium, 6 °C, 100 mM KCl (sample buffer: 20 mM K-phosphate pH 6.5, 100 mM KCl, 0.5 mM EDTA); 12 μM TF, 48 and 135 μM RBD–SBD; global fit to a monomer–dimer model; dimer to monomers
[4] = target: RBD–SBD (1–148/247–432) (E. coli) (UniProt P0A850); assay: SEC-MALS; as a2 but 250 mM KCl; dimer to monomers
[5] = target: His6-tagged full-length TF (E. coli) (UniProt P0A850); assay: SEC-MALS; preliminary data on His6-tagged full-length TF; elution concentration 10 µM; conservative estimate of KD

| Kd [1] | stoichiometry N [1] | Kd [2] | Kd [3] | Kd [4] | Kd [5] | stoichiometry N [5] | Substance |
| --- | --- | --- | --- | --- | --- | --- | --- |
| 72 µM | 2 | > 500 µM | 54 µM | > 500 µM |  |  | RBD–SBD (1–148/247–432) (from UniProt P0A850 1-148; P0A850 247-432) (domain or fragment) |
|  |  |  |  |  | < 100 nM | 2 | His6-tagged full-length TF (from UniProt P0A850 1-432) (natural protein) |
